Substitutions are numbered along the chain they refer to. Values belong to the binder of their own block, whether it stands above or below them.
What was measured:
[1] = target: T1, human CD39 (full length, on cells) (human, UniProt P49961 1-510); experiment: FACS, SK-MEL-5 cells
T1 construct: Recombinant on CHOK1-hCD39 cells or natural on SK-MEL-28, SK-MEL-5 and MOLP-8 cells; the cell line is named under assay; also called hCD39; ENTPD1
T1 sequence: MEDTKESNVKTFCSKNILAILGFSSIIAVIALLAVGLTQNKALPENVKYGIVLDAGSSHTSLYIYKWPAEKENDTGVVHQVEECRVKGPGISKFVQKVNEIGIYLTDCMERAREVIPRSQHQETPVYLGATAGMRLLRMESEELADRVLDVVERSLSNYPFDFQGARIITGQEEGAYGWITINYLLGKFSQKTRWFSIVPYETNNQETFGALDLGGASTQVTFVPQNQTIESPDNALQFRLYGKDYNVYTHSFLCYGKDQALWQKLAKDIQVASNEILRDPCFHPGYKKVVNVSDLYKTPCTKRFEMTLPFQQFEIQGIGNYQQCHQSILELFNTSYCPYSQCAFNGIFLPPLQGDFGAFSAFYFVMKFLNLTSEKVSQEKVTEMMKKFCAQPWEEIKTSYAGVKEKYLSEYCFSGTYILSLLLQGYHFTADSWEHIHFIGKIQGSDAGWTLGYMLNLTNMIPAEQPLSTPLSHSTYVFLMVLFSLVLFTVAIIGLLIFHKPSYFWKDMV
Method: Similarly, human CD39 expressing cells SK-MEL-5, SK-MEL-28 or MOLP-8, were incubated with a gradient concentration of anti-CD39 antibodies for 30 minutes at 4° C. Cells were washed 3 times using FACS buffer and next incubated with fluorescence labelled secondary antibody (goat-anti-mouse IgG or goat anti-human IgG) for 30 minutes at 4° C. Cells were washed 3 times and then re-suspended in FACS buffer and analyzed by flow cytometry analysis on BD Celesta. Data plotted and analyzed using GraphPad Prism 8.02.
Binding affinity of the humanized antibodies hu23.H5L5 and hu14.H1L1 were tested on different cells by FACS following the similar method as described in Example 3.2.
Reference antibodies T895 and 1394 were tested in parallel as control antibodies. As shown in FIG. 12 and summarized in Table 23, both antibodies hu23.H5L5 and hu14.H1L1 bound to human and cynomolgus CD39 expressing cells in a dose-dependent manner and with similar affinity by EC₅₀ at a sub-nanomolar or nanomolar level. Neither of them recognized mouse CD39 in the FACS study. Maximum signal (mean fluorescence intensity, MFI) differed between cells for each antibody may result from their different expression level.

[2] = target: T2, cynomolgus CD39 (full length, on CHOK1-cynoCD39 cells) (cynomolgus monkey, UniProt A0A7N9DGH8 1-510); experiment: FACS, CHOK1-cynoCD39 cells
T2 construct: whole, on cells; also called cCD39
T2 sequence: T1 sequence with V47I, F94Y, V221I, I230T, I329V, K368N, A391S, F489V, T490I
Method: CHOK1-hCD39, CHOK1-cCD39, CHOK1-mCD39 and CHOK1-blank cells were maintained in culture medium according to ATCC procedure. Cells were collected and re-suspended in blocking buffer at a density of 3×10⁶ cells/ml. Cells were transferred to 96 well FACS plates at 100 μl/well (3×10⁵ cells/well), the plates were centrifuged and washed twice with FACS buffer (PBS, 1% FBS, 0.05% Tween-20). 4-folds serial dilution of anti-CD39 antibodies were prepared in FACS buffer starting from 30 μg/ml. Reference antibody 9-8B and mouse/human control IgG were used as positive and negative controls, respectively. Cells were re-suspended in 100 μL/well diluted antibodies, and the plates were incubated at 4° C. for 60 min. […] The plates were washed with FACS buffer, and cells were re-suspended in 100 μL/well of PBS. Cells were then analyzed with FACSVerse™ and mean fluorescence intensity were determined. Full binding curves were generated on the CD39 expressing cells by testing a range of antibody concentrations. Apparent affinity was determined for each antibody using Prism software. […]
Reference antibodies T895 and 1394 were tested in parallel as control antibodies. […] Maximum signal (mean fluorescence intensity, MFI) differed between cells for each antibody may result from their different expression level.

[3] = target: T1, human CD39 (full length, on cells); experiment: cell-based or functional assay
[4] = target: T3, human CD39 (protein; form not stated) (human, UniProt P49961 38-478, limits assumed); experiment: ELISA on coated ENTPD1 (CD39) protein, anti-hIgG-HRP, OD450
T3 construct: also called ENTPD1; ENTPDase 1
T3 sequence: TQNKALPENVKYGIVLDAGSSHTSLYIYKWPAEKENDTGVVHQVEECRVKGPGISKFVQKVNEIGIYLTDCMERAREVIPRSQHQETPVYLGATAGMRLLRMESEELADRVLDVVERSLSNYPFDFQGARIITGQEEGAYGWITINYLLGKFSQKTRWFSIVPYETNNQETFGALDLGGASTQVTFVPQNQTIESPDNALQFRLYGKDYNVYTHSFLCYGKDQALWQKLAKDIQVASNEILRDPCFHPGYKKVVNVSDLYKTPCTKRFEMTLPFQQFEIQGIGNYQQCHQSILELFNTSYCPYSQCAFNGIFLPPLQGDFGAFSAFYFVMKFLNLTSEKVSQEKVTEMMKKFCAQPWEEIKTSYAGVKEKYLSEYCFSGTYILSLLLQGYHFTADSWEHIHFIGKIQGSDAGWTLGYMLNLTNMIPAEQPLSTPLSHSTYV
Method: Binding specificity of the purified humanized antibody hu23.H5L5 against ENTPDase family members was detected by ELISA assay. Briefly, ENTPD1 (i.e. CD39) and ENTPD 2/3/5/6 proteins were coated on 96-well ELISA plates at 4° C. overnight, next day the ELISA plates were washed and blocked using blocking buffer (1% BSA in PBS with 0.05% Tween20) 200 μL/well for 2 hours. Then hu23.H5L5 gradients were duplicated into the wells and stained with anti-hIgG-HRP. After plate washing, the plates were developed with TMB substrate and stopped by 2N HCl. The OD450 were recorded using plate reader and platted by Graphpad Prism.

EC50 [1]: 0.21 nM
EC50 [2]: 4.19 nM
B1: Antibody T895 (antibody, V domains shown)
VH: EVQLQQSGPELVKPGASVKMSCKASGYTFTDYNMHWVKQSHGRTLEWIGYIVPLNGGSTFNQKFKGRATLTVNTSSRTAYMELRSLTSEDSAAYYCARGGTRFAYWGQGTLVTVSA
VL: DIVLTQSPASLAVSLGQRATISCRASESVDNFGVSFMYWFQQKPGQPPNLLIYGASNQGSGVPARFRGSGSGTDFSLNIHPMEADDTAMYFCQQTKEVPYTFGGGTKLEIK
notes: also called 31895

EC50 [1]: 0.69 nM
ATPase inhibition IC50 on SK-MEL-28 cells [3]: 0.122 nM
EC50 [2]: 3.38 nM
EC50 (read off the curve) [4]: ~4 nM
B2: hu23.H5L5 (antibody, V domains shown)
VH: QVQLVQSGAEVKKPGASVKVSCKASGYNLKDTFLHWVRQAPGQGLEWMGRIDPANGNIKYDPKFQGRVTITADTSANTAYMELISLRSEDTAVYYCANSPYYYGSGYRIFDVWGQGTTVTVSS
VL: QIVLTQSPATLSLSPGERATLSCSAFSSVNYMHWYQQKPGQAPRLLIYTTSNLASGIPTRFSGSGSGTSYTLTISSLEPEDFAVYYCQQRSTYPFTFGQGTKLEIK
notes: humanized c23

From patent US20210388105A1 (ELPISCIENCE SUZHOU BIOPHARMA, published 2021)
